Data published in patent publication US20200247894A1 (Regeneron, published 2020).

B1: H4H12913P2 (antibody, human IgG4 S228P, kappa, V domains shown)
VH: EVQLVESGGGVVRPGGSLRLSCAASGFTFDDYGMSWVRQAPGKGLEWISSINRNGGSADYADSVKGRFTISRDNAKNSLFLQMSSLRAEDTALYHCASGEFRFDYWGQGTLVTVSS
VL: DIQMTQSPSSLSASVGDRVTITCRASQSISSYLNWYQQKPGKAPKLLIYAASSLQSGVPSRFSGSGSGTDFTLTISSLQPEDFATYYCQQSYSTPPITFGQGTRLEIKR
notes: anti-IL2Rgamma mAb expressed with human IgG4 Fc
B2: H4H12927P2 (antibody, human IgG4 S228P, kappa, V domains shown)
VH: EVQLVESGGGVVRPGGSLRLSCATSGFTFDDYGMSWVRQVPGKGLEWVSSVNRNGGTTDYADSVKGRFTISRDNAKRSLFLQMNSLRAEDTALYHCATGELFFDYWGQGTLVTVSS
VL: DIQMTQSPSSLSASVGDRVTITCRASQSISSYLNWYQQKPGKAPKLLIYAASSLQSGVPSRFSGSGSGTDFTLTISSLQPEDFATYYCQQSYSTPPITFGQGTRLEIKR
notes: as for B1
B3: H4H12922P2 (antibody, human IgG4 S228P, kappa, V domains shown)
VH: QVQLVESGGGVVKPGGSLRLSCAASGFTFSNSGIHWVRQAPGKGLEWVALISYAGSNKYYADSVKGRFTISRDNSKNTLSLQMNSLRAEDTAVYYCAKEVWTGTYDSFDMWGRGTMVTVSS
VL: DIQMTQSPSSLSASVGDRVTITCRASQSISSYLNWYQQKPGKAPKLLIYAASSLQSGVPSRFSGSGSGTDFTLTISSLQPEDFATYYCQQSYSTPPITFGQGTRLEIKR
notes: anti-IL2Rgamma mAb expressed with human IgG4 Fc; also called REGN7256
B4: H4H12858P (antibody, human IgG4 S228P, kappa, V domains shown)
VH: EVQLVESGGDLVQPGGSLRLSCTASGFIFRNYAMNWVRQAPGKGLEWLSGILGSNDNTYYVDSVKGRFTISRDNSRNTLYLQMNSLRAEDSAVYYCAKGDAGGFDYWGQGTLVTVSS
VL: DVVMTQSPLSLPVILGQPASISCRSSQSLVSSDGNTYLNWFQQRPGQSPRRLIYKVSNRDSGVPDRFSGSGSGTDFTLKISRVEAEDVGAYYCMQGSYWPPTFGQGTKLEIKR
notes: anti-IL2Rgamma mAb expressed with human IgG4 Fc; also called REGN9433
B5: H4H13538P (antibody, human IgG4 S228P, kappa, V domains shown)
VH: EVQLVESGGGLVQPGGSLGLSCAASGFTFSNYAMSWVRQAPGKGLEWVSAVSGGGGGTYYADSVKGRFTISRDNSKNTVLLQMNSLRAEDTAVYYCARGRTGGLDYWGPGTLVTVSS
VL: DVVMTQSPLSLPVIFGQPASISCRSSQSLVDSDGNTYLNWLQQRPGQSPRRLIYEVSNRDSGVPDRFSGSGSGTDFTLTISRVEAEDVGIYYCMQGTRWPPTFGGGTKVEIKR
notes: as for B1
B6: H4H12859P (antibody, human IgG4 S228P, kappa, V domains shown)
VH: QVQLVQSGAEVKKPGASVRVSCKASGYTFTDYDIHWVRQAPGHGLEWMGWINPNSGGTNYAQKFQGRVTMTRDTSISTVYMDLSRLRSDDTAVYYCARADYSSSYYYYGMDVWGQGTTVTVSS
VL: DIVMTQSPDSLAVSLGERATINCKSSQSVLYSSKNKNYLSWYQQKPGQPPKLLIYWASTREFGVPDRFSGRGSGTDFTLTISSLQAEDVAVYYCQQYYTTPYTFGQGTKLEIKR
notes: as for B1
B7: H4H12863P (antibody, human IgG4 S228P, kappa, V domains shown)
VH: QVQLVESGGGVVQPGRSLRLSCTASGFTFRSYDMYWVRQAPGKGLEWVSVITYDGNNKYYADSVKGRFTISRDNSKNTLFLQMSSLRPEDTAVYYCAKRGLIWVGESFDYWGQGTLVTVSS
VL: DIQMTQSPSTLSASVGDRVTITCRASQSINSWLAWYQQKPGKAPNLLIYKASSLESGVPSRFSGSGSGTEFTLTISSLQPDDFATYYCQQYKSYSWTFGQGTKVEIKR
notes: as for B1
B8: H4H12871P (antibody, human IgG4 S228P, kappa, V domains shown)
VH: QVQLQESGPGLVKPSQTLSLTCTVSGGSITSGGYYWSWIRQYPGQGLEWIGYIYYSGKTYYNPSFTSRITISVDTSKKQFSLKMSSVTAADTAVYYCARAGFTSSNGWFDPWGQGTLVTVSS
VL: DIQMTQSPSSLSASVGDRVTITCRASQNIRSYLNWYQQKPGKAPKLLIYSASSLQSGVPSRFSGSGSGTDFTLTISSLQPEDFPTYYCQQTYSSPWTFGPGTKVEIKR
notes: anti-IL2Rgamma mAb expressed with human IgG4 Fc; also called REGN9434
B9: H4H12874P (antibody, human IgG4 S228P, kappa, V domains shown)
VH: QVQLVESGGGVVQPGRSLRLSCAASGFNFRNFGMHWVRQAPGKGLEWVAGILYDGSSKYYADSVKDRFTISRDNSKNTLFLQMNSLRAEDTAMYYCAKEEDTAMVPFDSWGPGTLVTVSS
VL: DIQLTQSPSFLSASVGDRVTITCWASQGISSYLAWYQQKPGKAPTLLIYAASTLQSGVPSRFSGSGSGTEFTLTISSLQPEDFASYYCQQLKSYPLTFGGGTKVEIKR
notes: as for B1

Assays:
[1] = target: T1, Human IL2Rγ extracellular domain expressed with a C-terminal myc-myc-hexahistidine tag (human); experiment: SPR, captured mAb, 25C, dissociation pH 6.0
T1 construct: also called hIL-2Rg-MMH; hIL-2RG-MMH
T1 chain: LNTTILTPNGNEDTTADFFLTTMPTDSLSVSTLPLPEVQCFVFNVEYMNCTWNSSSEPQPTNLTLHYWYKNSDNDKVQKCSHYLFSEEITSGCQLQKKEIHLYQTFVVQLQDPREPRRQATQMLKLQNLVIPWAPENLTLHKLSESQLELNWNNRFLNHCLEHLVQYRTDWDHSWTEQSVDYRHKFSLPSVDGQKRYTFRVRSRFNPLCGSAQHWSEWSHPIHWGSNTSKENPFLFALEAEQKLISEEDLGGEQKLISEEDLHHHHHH
Method: (§1) The dissociation rate constant (kd) for binding of IL-2Rγ reagents to purified anti-IL2Rγ monoclonal antibodies was determined using a real-time surface plasmon resonance based Biacore 4000 biosensor platform. […] The CM5 Biacore sensor surface derivatized by amine coupling with monoclonal mouse anti-human Fc antibody (GE, Catalog # BR-1008-39) was used to capture anti-IL2Rγ monoclonal antibodies expressed with human IgG4 Fc. All the IL2Rγ reagents were expressed with a C-terminal myc-myc-hexahistidine tag (subsequently referred to with a -MMH suffix). […] The dissociation of bound IL-2Rg-MMH was performed in PBS-T-pH7.4 or PBS-T-pH6.0 running buffers for 6 minutes.
(§2) Dissociation rate constants (kd) in two running buffers were determined by fitting the real-time binding sensorgrams to a 1:1 binding model using Scrubber 2.0c curve-fitting software. Values of dissociation rate for […] mAb binding to hIL-2RG-MMH and mfIL-2RG-MMH at 25° C. and 37° C. in PBS-T-pH7.4 and PBS-T-pH6.0 is shown in Table 2-1 through Table 2-8.

[2] = target: T2, Macaca fascicularis IL2Rγ extracellular domain expressed with a C-terminal myc-myc-hexahistidine tag (Macaca fascicularis); experiment: SPR, captured mAb, 25C, dissociation pH 6.0
T2 construct: also called mfIL-2Rg-MMH; mfIL-2RG-MMH
T2 chain: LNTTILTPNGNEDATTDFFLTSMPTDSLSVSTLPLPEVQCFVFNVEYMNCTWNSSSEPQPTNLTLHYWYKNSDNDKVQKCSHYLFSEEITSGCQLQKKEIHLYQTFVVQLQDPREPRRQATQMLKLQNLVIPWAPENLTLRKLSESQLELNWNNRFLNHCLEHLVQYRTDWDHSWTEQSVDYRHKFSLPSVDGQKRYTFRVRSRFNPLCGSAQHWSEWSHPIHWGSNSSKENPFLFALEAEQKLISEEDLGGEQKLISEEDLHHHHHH
Method: as §1, §2

[3] = target: T1, Human IL2Rγ extracellular domain …; experiment: SPR, captured mAb, 37C, dissociation pH 6.0
Method: as §1, §2

[4] = target: T1, Human IL2Rγ extracellular domain …; experiment: SPR, captured mAb, 25C, dissociation pH 7.4
Method: as §1, §2

[5] = target: T2, Macaca fascicularis IL2Rγ extracellular …; experiment: SPR, captured mAb, 25C, dissociation pH 7.4
Method: as §1, §2

[6] = target: T1, Human IL2Rγ extracellular domain …; experiment: SPR, captured mAb, 37C, dissociation pH 7.4
Method: as §1, §2

Binder	100 nM Ag Bound (RU) [1] [RU]	koff [1] [s⁻¹]	t1/2 [1] [min]	100 nM Ag Bound (RU) [2] [RU]	koff [2] [s⁻¹]	t1/2 [2] [min]	100 nM Ag Bound (RU) [3] [RU]	koff [3] [s⁻¹]	t1/2 [3] [min]	100 nM Ag Bound (RU) [4] [RU]	koff [4] [s⁻¹]	t1/2 [4] [min]	100 nM Ag Bound (RU) [5] [RU]	koff [5] [s⁻¹]	t1/2 [5] [min]	100 nM Ag Bound (RU) [6] [RU]	koff [6] [s⁻¹]	t1/2 [6] [min]
B1	43	0.00105	11	44	0.000992	12	59	0.00383	3	56	0.000303	38	57	0.000272	43	82	0.00116	10
B2	30	0.00499	2.3	30	0.0032	3.6	19	0.0239	0.5	36	0.00163	7	38	0.000984	12	23	0.00982	1.2
B3	126	0.00118	10	129	0.00111	10	147	0.00374	3	164	0.000204	57	168	0.000191	61	184	0.000773	15
B4	103	0.000377	31	100	0.000385	30	136	0.00172	7	111	0.000184	63	111	0.000171	68	141	0.000661	17
B5	93	0.000417	28	96	0.000439	26	120	0.00148	8	82	0.000139	83	94	0.000179	65	110	0.000599	19
B6	39	0.00503	2.3	37	0.00413	2.8	36	0.0132	0.9	54	0.00111	10	51	0.000871	13	55	0.00454	2.5
B7	116	0.000762	15	118	0.000761	15	145	0.00226	5	151	0.000172	67	155	0.000194	59	176	0.000672	17
B8	129	0.00136	8	128	0.00116	10	141	0.00246	5	121	0.000596	19	125	0.000481	24	139	0.00111	10
B9	66	0.000724	16	64	0.000729	16	91	0.00261	4	72	0.000162	71	73	0.000164	70	99	0.000572	20
